# Reference: US20150274802A1
# Square brackets hold non-standard residues; d marks the D form. Primed or numbered codes have the meaning given here. Ends that are not written are not given here. PEG4″ = 4-unit polyethylene glycol spacer; PEG8″ = 8-unit polyethylene glycol spacer
# B1: #58: Lys^C8-PEG20K-Lys^C8 #3 dimer (ligand)
# chain: Ac-GPEHLCGAELVDALYLVCGDRGFY[PEG8″]KGIVDECCFRSCDLRRLENYCN
# modifications: not fully specified (some residues); numbers in words are those of the source; ends and bridges not checked; also: dimer: linker Lys epsilon-amines of two chains joined by bifunctional 20K PEG linker
# B2: #55: Lys^B1-PEG9-Lys^B1 #20* dimer, GE5K-B^1(H5,10Y16L17)25-C^1-A^1(H8N18,21) (ligand)
# chain: GEEEEEKGPEHLCGAHLVDALYLVCGDRGFYGYGSSSRRAPQTGIVDECCHRSCDLRRLENYCN
# B3: #53: Lys^C8-Lys^C8 #3 dimer, B^1[H5Y16L17]25-PEG8KPEG4-A^1[N18,21] (ligand)
# chain: Ac-GPEHLCGAELVDALYLVCGDRGFY[PEG8″]K(mercaptopropionyl)[PEG4″]GIVDECCFRSCDLRRLENYCN
# modifications: ends and bridges not checked; also: dimer: linker Lys side chains joined by disulfide to second chain
# B4: #59: Cys^B1-Lys^C8 #2(sc)-#3 dimer (ligand)
# chain 1: CGPEHLCGAELVDALYLVCGDRGFYFNKKGIVDECCFRSCDLRRLENYCN
# chain 2: GPEHLCGAELVDALYLVCGDRGFYKGIVDECCFRSCDLRRLENYCN
# modifications: here or on the partner: N-terminus acetylated; linker Lys epsilon-amine mercaptopropionylated; Cys B1 side chain disulfide-linked to the mercaptopropionyl group on the linker Lys of the second chain
# B5: #60: Cys^B1-Lys^C8 #2(tc)-#3 dimer (ligand)
# chain 1: CGPEHLCGAELVDALYLVCGDRGFYFNKK
# chain 2: GIVDECCFRSCDLRRLENYCN
# chain 3: B4 chain 2
# modifications: here or on the partner: N-terminus acetylated; linker Lys epsilon-amine mercaptopropionylated; Cys B1 side chain disulfide-linked to the mercaptopropionyl group on the linker Lys of the single-chain unit
# B6: #57: Gly^B2-PEG20K-Gly^B2 #11 dimer (ligand)
# chain: GPEHLCGAHLVDALYLVCGDRGFYGYGSSSRRAPQTGIVDECCHRSCDLRRLENYCN
# modifications: not fully specified (N-terminus); ends and bridges not checked; also: dimer: N-terminal amines of two chains joined by bifunctional 20K PEG linker
# B7: #56: Gly^B2-PEG10K-Gly^B2 #11 dimer (ligand)
# chain: B6 chain
# modifications: not fully specified (N-terminus); ends and bridges not checked; also: dimer: N-terminal amines of two chains joined by bifunctional 10K PEG linker
# Key:
# [1] = target: type A insulin receptor, P06213; assay: cell-based or functional assay
# type A insulin receptor [2] = target: type A insulin receptor (UniProt P06213); assay: cell-based or functional assay
# type A insulin receptor [3] = target: type A insulin receptor (UniProt P06213); assay: competitive binding SPA, subtype A insulin receptor (FIG. 17D)
# [4] = target: type B insulin receptor, P06213; assay: cell-based or functional assay
binder,measurement,setting,value
B1,"Phosphorylation (EC50), % IR-A",[1],18.6%
B2,"Phosphorylation (EC50), % IR-A",type A insulin receptor [2],44%
B3,"binding affinity, fold against native insulin",type A insulin receptor [3],1.5 fold
B4,"IC50, antagonism test",[1],2.08 nM
same,maximal response,[4],10%
B5,"IC50, antagonism test",[1],1.89 nM
same,maximal receptor response,[1],50%
same,maximal response,[4],50%
B6,"% Insulin Activity (in vitro, assay not named)",[1],19.7%
same,"Phosphorylation (EC50), % IR-A",[1],19.7%
same,potency against the 20K PEGylated monomer (#39),[1],4 fold
same,"% Insulin Activity (in vitro, assay not named)",[4],5.8%
same,"Phosphorylation (EC50), % IR-B",[4],5.8%
same,potency against the 20K PEGylated monomer (#39),[4],4 fold
B7,"Phosphorylation (EC50), % IR-A",[1],38.2%
same,"Phosphorylation (EC50), % IR-B",[4],9.7%
